According to the supplement of paper PMC9170038:

System: MS2 coat protein
Assay: apparent KD of MS2 coat protein; higher = weaker reporter binding
Conditions: Eterna round: R107
Protocol: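 RNA-MaP round R107: designed RNA switches with theophylline, tryptophan, arginine or FMN aptamers are transcribed on-chip within common flanks. They are titrated with SNAP-549-labelled MS2 coat protein in RNA-MaP buffer (100 mM Tris pH 7.5, 80 mM KCl, 4 mM MgCl2), without ligand or with the indicated ligand. Median apparent KD per design.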

[1] = input ligand: theophylline 20 uM
[2] = input ligand: theophylline 2 mM
[3] = input ligand: tryptophan 2.4 mM

| Sequence | apparent KD of MS2 coat protein (input ligand: arginine 13.2 mM) | apparent KD of MS2 coat protein [1] | apparent KD of MS2 coat protein [2] | apparent KD of MS2 coat protein (input ligand: none) | apparent KD of MS2 coat protein [3] |
| --- | --- | --- | --- | --- | --- |
| AAGCGGGCGACGGCCGCCACUUGCCUGUAAUUAGAGAAGGCACAUGAGGAUCACCCAUGUCCCGCAAGGACCGGGUUGCCUCACU [Ditiraorce] | 93.6 nM | 484 nM | 580 nM | – | – |
| AAGGAACAUGAGGAUCACCCAUGUACCGAAGGAGCGGCAGAGAUGCCAGGUAGGUCGCGGUACUUGCCGGGUCAUUCAUGCAGAG [Arraiste] | 39.1 nM | 30.6 nM | 32.8 nM | 26.3 nM | 23.9 nM |
| AAGGUGAUCCCAGAUACCAGCCUAACAUGAGGAUCACCCAUGUUUGGGACGAAAGUCCCAGGCCCUUGGCAGCUGGGUUGCCAAG [SSTheo B #17] | 48.8 nM | 131 nM | – | – | 185 nM |
| AAUAAACAUGAGGAUCACCCAUGUAUGGAAGGAGCGGUGAAUAAACCAGGUAGGUCGCCAGUGUGAGGGUCAUCUAUGUAAUCAA [Exclusion - Arginine A (Freestyle 3)] | 29.1 nM | 58.3 nM | 49.3 nM | 42.1 nM | 49.5 nM |
| AAUAACAUGAGGAUCACCCAUGUAAAAGAUACCAGAUGCAUGAUGAUCCCUUGGCAGCUUAAACGCGAUUGAUUACAAUCGCGAA [Mat - Same State Theophlline A - Mod of Eli - D10] | 40.9 nM | 71.9 nM | – | – | 21.2 nM |
| AAUAACAUGAGGAUCACCCAUGUAAAAGAUACCAGAUGCAUGAUGAUCCCUUGGCAGCUUAACGCUGAUUGGAAACAAUCAGCGA [Mat - Same State Theophlline A - Mod of Eli - D9] | 175 nM | 62.1 nM | – | – | 14.7 nM |
| AAUAAGCAGCUGCCUUCCUCAUGAGCAGAUACCAGCUAGGAAACUAGCCCUUGGCAGCUGCAACAUGAGGAUCACCCAUGUAAUA [(T)'-(M)'-(T1)-(T2)-(M1)-(M2)_Design4] | 22.4 nM | 81.2 nM | – | – | 43.7 nM |
| AAUAAUAACAUGGGUGCACGAGUGGCAUAACGAGGACCGGUACGGCCGCCACUCGAACAUGAGGAUCACCCAUGUAGCCACUCGA [M'-T'-T-MS2-T'' - Design 4] | 55.1 nM | 102 nM | 132 nM | 102 nM | 20.5 nM |
| AAUAAUAAGGCGGCCGCCACUAAACAUGAGGAUCACCCAUGUCUCGAGCGCUUGCAUUUGGGAAGUAGGACCGGGCCAAUAAUAA [Exclusion - Tryptophan B (Freestyle 4)] | 14.5 nM | 28.8 nM | 22.6 nM | 21.4 nM | 19.4 nM |
| AAUAAUAUGAGGAUCACCCAUAUAAAAGAUACCAGAGUGAUGAUCCUCCCUUGGCAGCUUAACGCUGAUUGAUUACAAUCAGCGA | 68.7 nM | 85 nM | 234 nM | 47.5 nM | 25.5 nM |
| AAUAGCAUGAGGAUCACCCAUGUAAAAGAUACCAGAGUGAUGAUCCUCCCUUGGCAGCUUAACGCUGAUUGAUUACAAUCAGCGA | 37 nM | 97.8 nM | 229 nM | 44.9 nM | 34.4 nM |
| AAUCUGUCGGGUGAUACCAGCCUCGGCACGUCUCGUGCCGAACAUGAGGAUCACCCAUGUGGCCCUUGGCAGCACAUGACAAAUC [Teaton] | 71.8 nM | 729 nM | – | – | 606 nM |
| AAUGUAUGGCACAUGAGGAUCACCCAUGUGCGAGGACCGGUACGGCCGCCACUCGGUCCUGGAUUCUUAUUACUAUACAUUAAUG [XTryp A #16] | 14 nM | 18.9 nM | 15.4 nM | – | – |
| AAUUAAACAUCGGCCGCCACUUACUCAUGAGGUAACAACAUGAGGAUCACCCAUGUUUGAGGAUCAAGGACCGGGAUGUAAUUUU [AstrosSSTryB#3] | 28 nM | 40.3 nM | 35.1 nM | – | – |
| AAUUAUCAGUCGGCCGCCACUGACACAUGAGGAUCACCCAUGUAAUAUGGGUAAAAUUAACUGAACAGGACCGGGACAAAUGCUA [JR_SSTryptoB_Sub021] | 135 nM | 472 nM | 803 nM | – | – |
| AAUUCCUCACAUGAGGAUCACCCAUGUGAAGGAGCGCGGAAUAACGCAGGUAGGUCGCACAUGGAAACCGCUGCGAAAGCAGCAA [MAT - Exclusion Arginine A - Mod of Eli - D26] | 13.1 nM | 24 nM | 18.1 nM | 18.7 nM | 16.3 nM |
| AAUUGGCACUGAAGGAGCGAGUUUACCUAAAUAACAUGAGGAUCACCCAUGUAAAAUGGGACUCAGGUAGGUCGCAGUUGUCAAA [Same State Arginine B GF 22] | 48 nM | 76.4 nM | 63.7 nM | 57.6 nM | 61.5 nM |
| AAUUGGGUUGGUGAGGUGGUUGGAGGCGAUACCAGCGUGGAAACACGCCCUUGGCAGCGCCAGGACAUGAGGAUCACCCAUGUAA [Praha] | 32.1 nM | 486 nM | 713 nM | 260 nM | 205 nM |
| AAUUGGGUUGGUGAGGUGGUUGGAGGCGAUACCAGCGUGGAAACACGCCCUUGGCAGCGCCAGGACAUGAGGAUCACCCAUGUUC [Ostrava] | 19.6 nM | 36 nM | – | – | 22.1 nM |
| ACACAUGACAGAAGGAGCGGAAUGAACACACAUGAGGAUCACCCAUGUUUUUUUUGUGUUUUCCAGGUAGGUCGCUGACAUGAGG [#20 Same State - Arginine B] | 11.2 nM | 20.7 nM | 9.54 nM | 8.99 nM | 8.95 nM |

| Sequence | apparent KD of MS2 coat protein (input ligand: arginine 13.2 mM) | apparent KD of MS2 coat protein [1] | apparent KD of MS2 coat protein [2] | apparent KD of MS2 coat protein (input ligand: none) | apparent KD of MS2 coat protein [3] |
| --- | --- | --- | --- | --- | --- |
| ACACAUGAGGAUCACCCAUGUGCGCUGGAAGGAGCGCAGAAUCAUGCAGGUAGGUCGCCAGUGCCCAUUACUAGAGGGAUAAGAG [Onriri] | 44.5 nM | 101 nM | 102 nM | 75.8 nM | 64.6 nM |
| ACACAUGAGGAUCACCCAUGUGCGCUGGAAGGAGCGCAGAAUCAUGCAGGUAGGUCGCCAGUGCCCUUCGAUAAAGGGAAAAGAG [Erbienes] | 42.4 nM | 72 nM | 106 nM | 97.4 nM | 69.1 nM |
| ACACAUGAGGAUCACCCAUGUGCGCUGGAAGGAGCGCAGAAUCAUGCAGGUAGGUCGCCAGUGCCCUUUGAUAAAGGGAAAAGAG [Reor] | 52.2 nM | 99.7 nM | 76.9 nM | 43.3 nM | 64.3 nM |
| ACAUGAAGAACAGCGGUGGGCGCGCUCGAUACCAGUACUUUGAAAUACCCUUGGCAGCGACAUGAGGAUCACCCAUGUGAGAUGA [XTheo A #3] | 13 nM | 25.6 nM | 49.5 nM | 16.6 nM | 15.7 nM |
| ACAUGAAGAACAGCGGUGGGCGCGCUCGAUACCAGUAUUUUAACCUACCCUUGGCAGCGACAUGAGGAUCACCCAUGUGAGAUGA [XTheo A #7] | 18.5 nM | 26.8 nM | – | – | 16.6 nM |
| ACAUGAAGAUUAAUCGUGGGCAUACUCGAUACCAGUAUUUUAACCUACCCUUGGCAGCGACAUGAGGAUCACCCAUGUGAGAUGA [XTheo A #8] | 19.9 nM | 23.5 nM | – | – | 22.8 nM |
| ACAUGAGACAUGGAUACCAGCGACAUGAGGAUCACCCAUGUAUGAGGAUCACCCAUGUUAUGCCCUUGGCAGCCACAAACAUGAG [.PLMULLINP] | 19.8 nM | 30.8 nM | 147 nM | 13.9 nM | 15.2 nM |
| ACAUGAGCAUCAGCCUUGUAGGAACUAGAUACCAGCCCAACAUGAGGCCCUUGGCAGCUGACAACAUGAGGAUCACCCAUGUCAC [Exclusion - Theophylline A #1] | 20.1 nM | 36.3 nM | – | – | 38.4 nM |
| ACAUGAGGAUCACCCAUGUAAUGGCACGAUACCAGCUGAUCCCGUGGCCCUUGGCAGCGUCCGGUGUGGUCCGCCGGGUUGGACC [HHHMULLIN] | 59 nM | 49.1 nM | 31.1 nM | 26 nM | 36.2 nM |
| ACAUGAGGAUCACCCAUGUAAUUAACAGAAGGAGCGUGAUGGAUCACAGGUAGGUCGCUGUACUUAGAAAUAACUCUCAUGAAUA [JR_Nu_SSArginiA_Sub024] | 15.2 nM | 27.6 nM | 16.6 nM | 18.2 nM | 17.1 nM |
| ACAUGAGGAUCACCCAUGUACAUGACGGAAGGAGCGUGCAAAAGCACAGGUAGGUCGCCGAUCUACAUAUUGGGUAUUAUAUUUU [#29 Exclusion - Arginine A] | 15.4 nM | 35.7 nM | 28.3 nM | 19.4 nM | 24.2 nM |
| ACAUGAGGAUCACCCAUGUAUGACUAUCCUCGAGGACCGGUACGGCCGCCACUCGAACGAGUGGCUCGCGAGUGCGCACUCGCGG [5'end-1] | 12.4 nM | 15.6 nM | 12.9 nM | 11.4 nM | 11.6 nM |
| ACAUGAGGAUCACCCAUGUAUUACCGGGAAGGAGCGGCCGGAAGGCCAGGUAGGUCGCUCGGCGUCGUGCUGUAAAGCACGACGA [#1 Same State - Arginine A Attempt #27 (HarryS)] | 8.95 nM | 18.4 nM | 12.2 nM | 14 nM | 11.6 nM |
| ACAUGAGGAUCACCCAUGUCAGGGCACGAUACCAGCUGAUCCGAUGGCCCUUGGCAGCGUUACGUGUGGUCAUGAGGAUCACCCG [pjbmullin] | 55.5 nM | 101 nM | 76.8 nM | 59.3 nM | 64.7 nM |
| ACAUGAGGAUCACCCAUGUCUGCCACUGAUACCAGCGGAAGCCAACGCCCUUGGCAGCAGAACAUGAGGAUCACCCAUGUAGGCA [Same State Theophylline A GF26] | 52.8 nM | 180 nM | – | – | 256 nM |
| ACAUGAGGAUCACCCAUGUGAAGGCACGAUACCAGCUGAUCCCGUGGCCCUUGGCAGCGUCCGGUUUGGUCCGGCGGAUGGGACG [vvamullin] | 13.1 nM | 33.6 nM | 21.9 nM | 18.8 nM | 23 nM |
| ACAUGAGGAUCACCCAUGUGCAGAACGGAUACCAGCGUCCUGGUACGCCCUUGGCAGCCGGACAUGAGGAUCACCCAUGUGUGGA [Exclusion Theophylline A GF29] | 56 nM | 161 nM | – | – | 105 nM |
| ACAUGAGGAUCACCCAUGUUAAACAGGGUGCGAGGACCGGUACGGCCGCCACUCGGACAUUAUUACGAGUGAAUGGCAACGAUGU [#12 Exclusion Tryptophan A] | 26.5 nM | 24.1 nM | 24.4 nM | – | – |
| ACAUGAGGAUCACCCAUGUUCCUCAUUGAUACCAGUGAAUUUAGACGCCCUUGGCAGCGAGUUUUUUUAUAAGAUGUUUUUUUUU [6.H] | 244 nM | 829 nM | – | – | 1040 nM |
